This is an account of results in patent US20210115135A1 (ZHEJIANG SHIMAI PHARMACEUTICAL, published 2021).

As a reminder, the EC50 is the midpoint of the concentration-response curve.

Test [1] addresses T1, recombinant human LAG3 (Sino Biological Inc.) (human, UniProt P18627 23-450).
T1 construct: Bought recombinant protein; also called CD223; biotinylated recombinant human LAG3
T1 sequence (looked up): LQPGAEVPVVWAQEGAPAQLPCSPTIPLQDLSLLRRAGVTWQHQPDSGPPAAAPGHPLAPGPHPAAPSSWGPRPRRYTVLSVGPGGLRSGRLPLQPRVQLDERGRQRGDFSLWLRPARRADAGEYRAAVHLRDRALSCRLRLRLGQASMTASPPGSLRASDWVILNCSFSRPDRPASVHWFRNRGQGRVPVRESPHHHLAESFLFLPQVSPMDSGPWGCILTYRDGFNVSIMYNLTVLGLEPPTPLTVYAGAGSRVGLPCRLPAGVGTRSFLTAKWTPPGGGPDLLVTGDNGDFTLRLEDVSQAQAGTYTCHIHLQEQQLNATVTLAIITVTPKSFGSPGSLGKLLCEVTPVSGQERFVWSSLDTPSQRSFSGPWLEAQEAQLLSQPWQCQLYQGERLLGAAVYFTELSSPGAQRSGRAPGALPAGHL
Description: ELISA, recombinant human LAG3 coated, IgG detected by anti-human IgG (Fc-specific)-HRP. On the procedure:
ELISA was performed according to standard protocols. Briefly, recombinant human LAG3 (Sino Biological Inc.) was coated on Corning EIA/RIA high-binding 96-well plates (Corning Inc.) at 50 ng per well overnight at 4° C. and blocked with 3% nonfat milk in PBS (pH7.4). Fivefold serially diluted antibodies were added and incubated at room temperature for 2 h. The plates were washed with PBS containing 0.05% Tween 20. Bound Fab and IgG antibodies were detected by HRP-conjugated anti-FLAG tag antibody and HRP-conjugated anti-human IgG (Fe-specific) antibody (Sigma-Aldrich), respectively. The assay was developed at room temperature with TMB substrate (Sigma-Aldrich) and monitored at 450 nm with a microplate reader. The half-maximal binding (EC₅₀) was calculated by fitting the data to the Langmuir adsorption isotherm. DNV3 IgG1 and IgG4 were cloned into the plasmid vectors pDin1 and pDin4, respectively. They were expressed and purified from transiently transfected 293 freestyle cell cultures with a yield of […]. In ELISA, both DNV3 IgG1 and IgG4 bound to recombinant human LAG3 with an EC₅₀ of approximately 0.5 nM (FIG. 5).
A general note: ELISA stands for enzyme-linked immunosorbent assay.

Test [2] deals with T2, LAG3 of the Promega LAG3-MHCII Blockade Bioassay Kit (Cat. No.: CS194802) (UniProt P18627 23-525, limits assumed).
T2 sequence (looked up): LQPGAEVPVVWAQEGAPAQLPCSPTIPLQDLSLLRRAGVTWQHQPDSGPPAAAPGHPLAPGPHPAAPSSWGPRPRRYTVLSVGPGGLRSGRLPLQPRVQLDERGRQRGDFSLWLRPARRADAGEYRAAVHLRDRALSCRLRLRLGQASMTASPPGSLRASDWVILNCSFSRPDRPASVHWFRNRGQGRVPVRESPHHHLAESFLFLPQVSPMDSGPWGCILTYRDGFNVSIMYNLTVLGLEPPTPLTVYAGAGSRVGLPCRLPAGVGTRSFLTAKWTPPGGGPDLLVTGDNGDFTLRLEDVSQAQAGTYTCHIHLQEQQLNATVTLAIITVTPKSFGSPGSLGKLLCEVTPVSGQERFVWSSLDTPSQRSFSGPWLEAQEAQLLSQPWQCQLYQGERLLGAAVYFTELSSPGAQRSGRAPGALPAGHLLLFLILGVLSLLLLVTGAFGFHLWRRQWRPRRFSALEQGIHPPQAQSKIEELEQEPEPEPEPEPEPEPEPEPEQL
Description: cell-based or functional assay.

Test [3] addresses T1, recombinant human LAG3 (Sino Biological …). The test is described as follows: phage panning and monoclonal phage ELISA on recombinant human LAG3. On the procedure:
We have recently constructed a large (size, 10¹¹) phage-display naïve human Fab library with peripheral blood B cells from about 30 healthy individuals according to the previously published protocols (de Haard et al., J Biol Chem 1999, 274: 18218-18230). This library was used for selection of antibodies against recombinant human LAG3 conjugated to magnetic beads (Dynabeads M-270 epoxy; DYNAL Inc.) as described previously (Zhu et al., J Virol 2006, 80:891-899) except that we used 5, 1 and 0.1 μg of antigen in the first, second and third round of panning, respectively. Clones that bound to the antigen were identified from the third round of biopanning by using monoclonal phage ELISA as described (Zhu et al., J Virol 2006, 80:891-899).

For test [4] the target is unchanged. Description: ELISA, recombinant human LAG3 coated, Fab detected by anti-FLAG-HRP. On the procedure: The hexahistidine-tagged antibodies were expressed in E. coli strain HB2151 and purified from the soluble fraction of periplasm by using the Ni-NTA resin. 7 monoclonal antibodies against human LAG3 were selected by panning a large phage-display library of naïve human antibodies in the format of antigen-binding fragment (Fab). Then ELISA was performed according to standard protocols. Briefly, recombinant human LAG3 (Sino Biological Inc.) was coated on Corning EIA/RIA high-binding 96-well plates (Corning Inc.) at 50 ng per well overnight at 4° C. and blocked with 3% nonfat milk in PBS (pH7.4). Fivefold serially diluted antibodies were added and incubated at room temperature for 2 h. The plates were washed with PBS containing 0.05% Tween 20. Bound antibodies were detected by HRP-conjugated anti-FLAG tag antibody (Sigma-Aldrich). The assay was developed at room temperature with TMB substrate (Sigma-Aldrich) and monitored at 450 nm with a microplate reader.

B1: DNV3 IgG4 (antibody)
heavy: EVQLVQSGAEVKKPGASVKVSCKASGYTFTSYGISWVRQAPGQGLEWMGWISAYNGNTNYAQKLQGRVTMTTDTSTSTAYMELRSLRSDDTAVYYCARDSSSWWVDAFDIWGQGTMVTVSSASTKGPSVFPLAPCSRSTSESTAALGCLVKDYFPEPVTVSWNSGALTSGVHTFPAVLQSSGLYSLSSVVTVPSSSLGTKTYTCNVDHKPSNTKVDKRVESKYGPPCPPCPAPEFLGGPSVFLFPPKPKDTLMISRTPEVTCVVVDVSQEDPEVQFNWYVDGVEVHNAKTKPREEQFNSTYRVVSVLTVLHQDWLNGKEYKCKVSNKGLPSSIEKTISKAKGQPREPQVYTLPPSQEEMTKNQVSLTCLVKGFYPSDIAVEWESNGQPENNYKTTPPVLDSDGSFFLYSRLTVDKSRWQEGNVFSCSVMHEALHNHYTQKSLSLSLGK
light: QSVLTQPPSVSAAPGQKVTISCSGSTSNIAINYVSWYQQVPGTVPKLLIYDDDKRPSGIPDRFSGSKSGTSATLDISGLQTGDEAHYYCGVWDNSLLAVLFGGGTSLTVLGQPKAAPSVTLFPPSSEELQANKATLVCLISDFYPGAVTVAWKADSSPVKAGVETTTPSKQSNNKYAASSYLSLTPEQWKSHRSYSCQVTHEGSTVEKTVAPTECS
notes: Human IgG4 made in 293FS cells; also called original DNV3 IgG4
On to B1, for which the EC50 in test [1] was about 0.5 nM. Besides, the “T cell activation, EC50” value in test [2] was found to be 8.7 nM.

B2: DNV3 IgG1 (antibody)
heavy: not shown
light: QSVLTQPPSVSAAPGQKVTISCSGSTSNIAINYVSWYQQVPGTVPKLLIYDDDKRPSGIPDRFSGSKSGTSATLDISGLQTGDEAHYYCGVWDNSLLAVLFGGGTSLTVLGQPKAAPSVTLFPPSSEELQANKATLVCLISDFYPGAVTVAWKADSSPVKAGVETTTPSKQSNNKYAASSYLSLTPEQWKSHRSYSCQVTHEGSTVEKTVAPTECS
notes: Human IgG1 made in 293FS cells
Regarding B2, in test [1], the EC50 is about 0.5 nM.

B3: DNV4 Fab (Fab, V domains shown)
VH: EVQLVQSGAEVKKPGSSVKVSCKASGGTFSSYAISWVRQAPGQGLEWMGGIIPIFGTANYAQKFQGRVTITADESTSTAYMELSSLRSEDTAVYYCAREKPTGGYYGMDVWGKGTLVTVSS
VL: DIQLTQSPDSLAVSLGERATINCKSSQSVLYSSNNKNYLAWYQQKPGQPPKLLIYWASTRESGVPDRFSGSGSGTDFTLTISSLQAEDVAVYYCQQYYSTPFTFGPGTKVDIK
notes: Human Fab from a phage library, hexahistidine-tagged, detected through a FLAG tag, made in E. coli HB2151
Consider B3, for which the binding result in test [3] was “binds”.

B4: DNV7 Fab (Fab, V domains shown)
VH: EVQLVESGAEVKKPGSSVKVSCKASGGTFSSYAISWVRQAPGQGLEWMGGIIPIFGTANYAQKFQGRVTITADKSTSTAYMELSSLRSEDTAVYYCALDGKSGFDLAFDIWGQGTMVTVSS
VL: DIQLTQSPSSLSASVGDRVTITCRASRRISSYLNWYQQKQGKAPQLLIYAASSLQSGVPSRFSGSGSGTEFTLTISSLQPEDFATYYCQQFNSYPLTFGGGTKVEIK
notes: as for B3
On to B4, for which the binding result in test [3] is reported as “binds”.

B5: DNV5 Fab (Fab, V domains shown)
VH: QVQLVQSGAEVKKPGASVKVSCKASGGTFSSYAISWVRQAPGQGLEWMGGIIPIFGTANYAQKFQGRVTITADESTSTAYMELSSLRSEDTAVYYCARASPPAAYYYYYGMDVWGQGTTVTVSS
VL: DIQMTQSPSSLSASVGDRVTITCQASQDISNYLNWYQQKPGKAPKLLIYAASILQSGVPSRFSGSGSGTDFTLTISSLQPEDFATYYCQQSHSYSETFGQGTKVEIK
notes: as for B3
B5: the concentration for a half-maximal effect (EC50) in test [4] is at most 10 nM.

B6: DNV6 Fab (Fab, V domains shown)
VH: EVQLVQSGAEVKKPGESLKISCKGSGYSFTSYWIGWVRQMPGKGLEWMGIIYPGDSDTRYSPSFQGQVTISADKSISTAYLQWSSLKASDTAMYYCASGAPGYYYDSSGYYAFDIWGQGTMVTVSS
VL: QSVVTQPPSVSGAPGQRVTVSCTGSSSNIGADFDVHWYQQLPGTAPKLLIYGNTNRPSGVPDRFSGSKSGTSASLAITGLQAEDEADYYCQSYDNSLSGVVFGGGTKVTVL
notes: as for B3
As to B6, the EC50 in test [4] is at most 10 nM.

B7: DNV3.18 Fab (Fab, V domains shown)
VH: EVQLVQSGAEVKKPGASVKVSCKASGYTFTSYGISWVRQAPGQGLEWMGWISAYNGNTNYAQKLQGRVTMTTDTSTSTAYMELRSLRSDDTAVYYCARDSSSWWVDAFDIWGQGTMVTVSS
VL: SVVTQPPSVSEAPRQRVTISCSGSSSNIGNNAVNWYQQLPGKAPKLLIYYDDLLPSGVSDRFSGSKSGTSASLAISGLQSEDEADYYCAAWDDSLNAVVFGGGTKLTVL
notes: Light-chain-shuffled Fab variant of DNV3
B7: the binding result in test [4] is given as “binds”.

B8: DNV2 Fab (Fab, V domains shown)
VH: EVQLVQSGAEVKKPGASVKVSCKASGGTFSSYTISWVRQAPGQGLEWMGGIIPIFGTANYAQKFQGRVTITADKSTSTAYMELSSLRSEDTAVYYCARDPVFDYWGQGTLVTVSS
VL: DIQLTQSPSSLSASVGDRVTITCRASQNIGTYLNWYQQKPGKAPKLLIYAASSLQSGVPSRFSGSGSGTDFTLTISSLQPEDFATYYCQQLNSYPITFGQGTRLEIK
notes: as for B3
Consider B8, for which the binding result in test [3] was “binds”.
